# Measurements taken from PMC5552905, “Mechanisms of peptide sex pheromone regulation of conjugation in Enterococcus faecalis” (MicrobiologyOpen, 2017).
# T1: PrgX (Enterococcus faecalis (plasmid pCF10), UniProt Q04114 1-317)
# T1 sequence: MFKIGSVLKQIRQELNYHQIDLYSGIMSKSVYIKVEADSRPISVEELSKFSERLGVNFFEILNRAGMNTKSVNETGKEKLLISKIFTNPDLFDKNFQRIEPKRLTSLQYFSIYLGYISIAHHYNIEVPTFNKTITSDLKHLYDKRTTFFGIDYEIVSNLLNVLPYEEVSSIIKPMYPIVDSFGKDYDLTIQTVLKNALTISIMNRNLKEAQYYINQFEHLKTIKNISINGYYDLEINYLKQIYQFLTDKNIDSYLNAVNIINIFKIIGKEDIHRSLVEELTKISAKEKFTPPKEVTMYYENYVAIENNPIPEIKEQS
# B1: XBS1 DNA (dsDNA)
# DNA 1: TGTTAATATTTTAATTTTAGGTATTGAATACGACACTCGAAGATGTGTTTATTAAGCTATATCCCTTTTTTTTAAAAAAAAATA
# DNA 2: TATTTTTTTTTAAAAAAAAGGGATATAGCTTAATAAACACATCTTCGAGTGTCGTATTCAATACCTAAAATTAAAATATTAACA
# B2: cCF10 (C, clumping-inducing peptide, sex pheromone) (peptide)
# peptide: LVTLVFV
# notes: source: synthetic peptide, bought: New England Peptides
# B3: iCF10 (I, inhibitor peptide) (peptide)
# peptide: AITLIFI
# notes: as for B2
# B4: His-tagged PrgX (natural protein, Enterococcus faecalis (plasmid pCF10), UniProt Q04114 1-317, looked up)
# chain: T1 sequence
# notes: PrgX, master transcription regulator and sex pheromone receptor encoded by the Enterococcus faecalis plasmid pCF10; also called HisPrgX; Apo-PrgX
# B5: HisPrgX-C complex (complex)
# chain 1: T1 sequence
# chain 2: LVTLVFV
# notes: copies: 4 +
# B6: HisPrgX-I complex (complex)
# chain 1: T1 sequence
# chain 2: AITLIFI
# notes: copies: 4 +
# B7: PrgX‐C: PrgX/cCF10 complex (tetramer), purified by nickel affinity and size exclusion chromatography (protein)
# chain 1: T1 sequence
# chain 2: LVTLVFV
# modifications: left off: His tag, end not stated, kept
# B8: PrgX‐I: PrgX/iCF10 complex (tetramer), purified by nickel affinity and size exclusion chromatography (protein)
# chain 1: T1 sequence
# chain 2: AITLIFI
# modifications: left off: His tag, end not stated, kept
# Legend:
# PrgX = target: T1, PrgX; test: EMSA; apo (DMF); single shifted band; EMSA: 20 mM Tris-HCl pH 7.9, 0.1 M NaCl, 0.1 mM EDTA, 10% glycerol, 10 mM MgCl2, 1 ug poly-[d(A-T)], 0.1 ug poly-L-lysine, 20 ul, room temperature 15 min, 8 fmol DIG-labelled probe; details: protein: recombinant; tags: GST removed with PreScission (pGEX6p-1); chain copies: 2; label: 3' DIG-11-ddUTP; blunt
# His-tagged PrgX = target: B4; test: SPR; details: both partners purified
# [1] = target: the molecule itself; test: SEC; Superdex 200 Hiload 16/600, 20 mmol/L Tris-HCl pH 8.0, 300 mmol/L NaCl; affinity purified HisPrgX, HisPrgX-C or HisPrgX-I loaded; calibrated with gel-filtration standards; no DNA
# [2] = system: LT DNA (XBS1 and XBS2 operator sites), P Q promoter region; format: binding, Enterococcus faecalis (plasmid pCF10); details: for supershift of LT DNA by purified tetramers: SEC-purified PrgX-C or PrgX-I tetramers, LT probe containing both XBSs
# Description: The LT DNA template containing XBS1 and XBS2 sites (LT DNA, pCF10 sequence from nt 8029 to nt8185 (Hirt et al., 2005)) was PCR amplified from pCF10 using primers as described in. The XBS1 DNA template only has XBS1 site (pCF10 sequence 8029–8131nt) was made by annealing oligos ‐129/‐47‐F (5′[…] 3′) and −129/−47R (5′[…] 3′) to obtain double‐stranded DNA. The XBS2 DNA template only has the XBS2 site (pCF10 sequence from 8109 to 8290; −66 to +114 relative to the prgQ transcription initiation site), and was PCR amplified from pCF10 using primers as described in Caserta et al., 2012. In DNA templates with 5‐bp or 10‐bp insertions, sequence GTACC or […] was inserted between XBS1 and XBS2 sites and at a position of 6‐bp after the XBS1 site. DNA probes were labeled at the 3′‐ends with DIG‐11‐ddUTP using the DIG Gel Shift kit (Roche) by following the manufacturer's instructions. EMSA assays were performed in 20 μl reactions: DIG‐labeled DNA, purified proteins, 1 μg of poly‐[d(A‐T)], 0.1 μg of poly‐L‐lysine, 1 × reaction buffer (20 mmol L^−1 Tris‐HCl, pH 7.9, 0.1 mol L^−1 NaCl, 0.1 mmol L^−1 EDTA, 10% glycerol, 0.01 mol L^−1 MgCl2). The reactions were incubated at room temperature for 15 min and loaded onto 5% polyacrylamide gels in 1 × TBE buffer (Tris, Borate, EDTA, pH 7.9). After electrophoresis at 100 V for 1.5 h, the DNA–protein complexes and DNA probes were electrotransferred onto a nylon membrane (Roche) at 6 V for 2 h using the GENIE electrophoretic blotter (Idea Scientific). DIG‐labeled DNA fragments were visualized by an enzyme immunoassay (DIG Gel Shift Kit, Roche) following the manufacturer's instructions. […] For the experiments reported here the powdered form of the peptides were initially solubilized in pure DMF at 0.5 mg/ml, and then diluted 10‐fold in KPBS for use as a working stock solution, which was diluted into the EMSA reactions to a final peptide concentration of 40 nmol L^−1.
# EMSA assays were performed using 8 fmol of digoxigenin‐labeled LT DNA probes with increasing amounts of PrgX protein. PrgX was preincubated for 5‐min at room temperature with 40 nmol L^−1 of C (a) or I (b) before adding LT DNA. PrgX concentrations: lanes 2 and 6: 38 nmol L^−1; lanes 3 and 7: 76 nmol L^−1; lanes 4 and 8: 190 nmol L^−1; lanes 5 and 9: 568 nmol L^−1. (c) Cartoon showing the predicted products formed by binding PrgX to LT DNA.
molecule,measurement,setting,value
B1,binding result,PrgX,binds
B2,Kd,His-tagged PrgX,0.686 pM
same,koff,His-tagged PrgX,5.5e-05 s⁻¹
B3,Kd,His-tagged PrgX,0.152 pM
same,koff,His-tagged PrgX,2.09e-05 s⁻¹
B4,stoichiometry N,[1],2
B5,stoichiometry N,[1],4
B6,stoichiometry N,[1],4
B7,relative protein concentration for supershift / singly shifted probe,[2],slightly more of the singly shifted probe is detected relative to PrgX/I complexes at equivalent protein concentrations
same,supershift of LT DNA by purified tetramers,[2],nearly complete supershift to band II at extremely low PrgX concentrations
B8,relative protein concentration for supershift / singly shifted probe,[2],complete supershifting at slightly lower protein concentrations than PrgX/C
same,supershift of LT DNA by purified tetramers,[2],nearly complete supershift to band II at extremely low PrgX concentrations
